Patent publication US7449563B2, “Methods and compositions for destabilizing microtubules” (Academia Sinica, priority 2003, dated 2008)
Positions count from the first letter of the chain named. Names and notes keep the numbering of the source. No end group written: not given here.

B1: GST-PN2: GST fusion polypeptide corresponding to amino acid residues 132-422 of CPAP (protein, UniProt Q9HC77 132-422, looked up, fragment)
chain: EFKEGAYKDPLFKKLEQLKEVQQKKQEQLKRQQLEQLQRLMEEQEKLLTMVSGQCTLPGLSLLPDDQSQKHRSPGNTTTGERATCCFPSYVYPDPTQEETYPSNILSHEQSNFCRTAHGDFVLTSKRASPNLFSEAQYQEAPVEKNNLKEENRNHPTGESILCWEKVTEQIQEANDKNLQKHDDSSEVANIEERPIKAAIGERKQTFEDYLEEQIQLEEQELKQKQLKEAEGPLPIKAKPKQPFLKRGEGLARFTNAKSKFQKGKESKLVTNQSTSEDQPLFKMDRQQLQR
modifications: GST tag
notes: GST fusion polypeptide corresponding to amino acid residues 132-422 of CPAP
B2: PN2-3: PN2-3 polypeptide with wild-type CPAP sequence, residues 311-422 of SEQ ID NO:1, expressed using pET vectors (protein, listed as Homo sapiens)
chain: QKHDDSSEVANIEERPIKAAIGERKQTFEDYLEEQIQLEEQELKQKQLKEAEGPLPIKAKPKQPFLKRGEGLARFTNAKSKFQKGKESKLVTNQSTSEDQPLFKMDRQQLQR
B3: L353P: PN2-3 polypeptide with L353 mutated to proline (protein, listed as Homo sapiens)
chain: MFLMPTSSELNSGQNFLTQWMTNPSRAGVILNRGFPILEADKEKRAAVDISTSFPIKGTHFSDSFSFINEEDSLLEEQKLESNNPYKPQSDKSETHTAFPCIKKGPQVAACHSAPGHQEENKNDFIPDRASEFKEGAYKDPLFKKLEQLKEVQQKKQEQLKRQQLEQLQRLMEEQEKLLTMVSGQCTLPGLSLLPDDQSQKHRSPGNTTTGERATCCFPSYVYPDPTQEETYPSNILSHEQSNFCRTAHGDFVLTSKRASPNLFSEAQYQEAPVEKNNLKEENRNHPTGESILCWEKVTEQIQEANDKNLQKHDDSSEVANIEERPIKAAIGERKQTFEDYLEEQIQLEEQEPKQKQLKEAEGPLPIKAKPKQPFLKRGEGLARFTNAKSKFQKGKESKLVTNQSTSEDQPLFKMDRQQLQRKTALKNKELCADNPILKKDSKARTKSGSVTLSQKPKMLKCSNRKSLSPSGLKIQTGKKCDGQFRDQIKFENKVTSNNKENVTECPKPCDTGCTGWNKTQGKDRLPLSTGPASRLAAKSPIRETMKESESSLDVSLQKKLETWEREKEKENLELDEFLFLEQAADEISFSSNSSFVLKILERDQQICKGHRMSSTPVKAVPQKTNPADPISHCNRSEDLDHTAREKESECEVAPKQLHSLSSADELREQPCKIRKAVQKSTSENQTEWNARDDEGVPNSDSSTDSEEQLDVTIKPSTEDRERGISSREDSPQVCDDKGPFKDTRTQEDKRRDVDLDLSDKDYSSDESIMESIKHKVSEPSRSSSLSLSKMDFDDERTWTDLEENLCNHDVVLGNESTYGTPQTCYPNNEIGILDKTIKRKIAPVKRGEDLSKSRRSRSPPTSELMMKFFPSLKPKPKSDSHLGNELKLNISQDQPPGDNARSQVLREKIIELETEIEKFKAENASLAKLRIERESALEKLRKEIADFEQQKAKELARIEEFKKEEMRKLQKERKVFEKYTTAARTFPDKKEREEIQTLKQQIADLREDLKRKETKWSSTHSRLRSQIQMLVRENTDLREEIKVMERFRLDAWKRAEAIESSLEVEKKDKLANTSVRFQNSQISSGTQVEKYKKNYLPMQGNPPRRSKSAPPRDLGNLDKGQAASPREPLEPLNFPDPEYKEEEEDQDIQGEISHPDGKVEKVYKNGCRVILFPNGTRKEVSADGKTITVTFFNGDVKQVMPDQRVIYYYAAAQTTHTTYPEGLEVLHFSSGQIEKHYPDGRKEITFPDQTVKNLFPDGQEESIFPDGTIVRVQRDGNKLIEFNNGQRELHTAQFKRREYPDGTVKTVYANGHQETKYRSGRIRVKDKEGNVSMDTEL
B4: GFP-CPAP-fl: GFP-tagged full-length CPAP polypeptide, residues 1-1338, expressed from a transfected vector (protein, UniProt Q9HC77 1-1338, looked up)
chain: B3 chain with R129L, P353L, S1333L
modifications: full-length GFP tag
notes: GFP-tagged full-length CPAP polypeptide, residues 1-1338, expressed from a transfected vector

How the values were obtained:
HeLa cells = assay: Cell-based assay for CPAP activity: microtubule reassembly in cold-treated transfected HeLa cells; set-up: species or system human; details: for Inhibition of microtubule reassembly in cold-treated mitotic cells (in words): transiently transfected HeLa cells
Procedure: Cell Culture and Transfection
HeLa cells were maintained in DMEM supplemented with 10% fetal bovine serum. cDNA clones encoding different portions of CPAP were subcloned, in an appropriate reading frame, into the CMV promoter-driven EGFP-C1 expression vector (Clontech, Palo Alto, Calif.). Transient transfections were performed using Lipofectamine 2000 (Invitrogen, Carlsbad, Calif.) according to the manufacturer's instructions.
Cold Treatment, Immunofluorescence and Confocal Microscopy
HeLa cells were grown on coverslips for at least 24 hr. Cold treatment was performed by incubating the cells at 4° C. for 1 hr, then replacing the cold medium with medium warmed to 30° C. and incubating the cells for 2 min at 30° C. The cells were then fixed with 1% formaldehyde for 30 min at room temperature.
The fixed cells were incubated in the presence of anti-α-tubulin monoclonal antibodies (N356, Amersham, Piscataway, N.J.) and anti-γ-tubulin polyclonal antibodies (Sigma, Saint Louis, Mo.). Bound anti-α-tubulin monoclonal antibodies (N356) were detected with Alexa 568, a Texas Red-conjugated goat anti-mouse IgG, or Alexa 647, a far-red fluorophore-conjugated goat anti-mouse IgG. Bound anti-γ-tubulin polyclonal antibodies were detected with Alexa 568 (Molecular Probes Inc.). The resulting […] signals were detected using a laser scanning confocal system (MRC 1000, Bio-Rad Laboratories, Hercules, Calif.).
The effect of various polypeptides derived from CPAP was determined by evaluating the amounts of mitotic spindle formation in the transfected cells. Decreased mitotic spindle formation indicated the presence of an activity that inhibited microtubule formation or destabilized microtubules.

[1] = target: T1, microtubule nucleation from purified centrosomes (bovine brain tubulin) (Bos taurus, UniProt P81947+Q6B856); assay: In vitro centrosome-dependent microtubule nucleation assay; assay type: biochemical; details: for Inhibition of microtubule nucleation/assembly from purified centrosomes (in words): in vitro; for Effect of synthetic peptide on centrosome-dependent microtubule nucleation (in words): 20 μM or 40 μM peptide
T1 construct: containing 125 μg bovine brain tubulin (Cytoskeleton, Denver, Colo.); purchased Cytoskeleton, Denver, Colo; host or cells: bovine brain (tissue-purified)
T1 sequence (P81947 whole entry): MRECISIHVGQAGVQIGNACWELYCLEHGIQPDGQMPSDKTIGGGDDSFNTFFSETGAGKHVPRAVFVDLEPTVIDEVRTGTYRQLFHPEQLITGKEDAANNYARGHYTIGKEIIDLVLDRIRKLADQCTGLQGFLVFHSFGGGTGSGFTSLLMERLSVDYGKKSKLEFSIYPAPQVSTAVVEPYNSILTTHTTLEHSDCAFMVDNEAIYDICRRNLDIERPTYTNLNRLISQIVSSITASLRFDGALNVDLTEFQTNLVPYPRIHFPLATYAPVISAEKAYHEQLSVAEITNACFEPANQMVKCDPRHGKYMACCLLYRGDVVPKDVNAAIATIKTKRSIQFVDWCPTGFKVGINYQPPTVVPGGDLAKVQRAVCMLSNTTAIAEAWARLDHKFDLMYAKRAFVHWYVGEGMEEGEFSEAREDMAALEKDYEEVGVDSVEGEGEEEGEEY
T1 sequence (Q6B856 whole entry): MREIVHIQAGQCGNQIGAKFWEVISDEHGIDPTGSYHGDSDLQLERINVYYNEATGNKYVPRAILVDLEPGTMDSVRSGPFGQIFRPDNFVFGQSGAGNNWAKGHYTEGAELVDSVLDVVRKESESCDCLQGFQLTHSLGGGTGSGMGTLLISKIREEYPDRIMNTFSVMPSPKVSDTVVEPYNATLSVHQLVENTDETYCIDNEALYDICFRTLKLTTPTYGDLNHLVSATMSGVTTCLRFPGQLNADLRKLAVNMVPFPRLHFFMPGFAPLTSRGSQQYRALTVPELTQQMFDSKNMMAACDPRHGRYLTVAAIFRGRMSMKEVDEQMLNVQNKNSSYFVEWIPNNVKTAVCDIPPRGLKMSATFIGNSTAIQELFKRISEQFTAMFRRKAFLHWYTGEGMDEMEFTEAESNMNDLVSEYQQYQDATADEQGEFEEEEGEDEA
Procedure: In vitro Centrosome-Dependant Microtubule Nucleation Assay
Isolation of centrosomes and microtubule nucleation tests were performed as described (Hung et al., 2000). To investigate the effect of different GST-truncated CPAP fusion proteins on microtubule nucleation, purified centrosomes (4 μl per reaction) were pre-incubated with the various truncated GST-CPAP fusion proteins or FPLC purified synthetic peptides for 10 min at 4° C. The reaction mixtures were then incubated in 65 μl RG1 buffer (80 mM PIPES, pH 6.8, 1 mM EGTA, 1 mM MgCl2, and 1 mM GTP) containing 125 μg bovine brain tubulin (Cytoskeleton, Denver, Colo.) for 4 min at 37° C.
Microtubules present in the reaction mixtures were fixed in 200 μl 1% glutaraldehyde in RG1 buffer, sedimented onto acid-treated coverslips, and subjected to immunofluoresence analysis using anti-α-tubulin monoclonal antibodies N356 (Amersham, Piscataway, N.J.) or FITC-conjugated anti-α-tubulin monoclonal antibodies (DM1A-FITC; Sigma, Saint Louis, Mo.). Truncated GST-CPAP proteins were detected using an anti-GST polyclonal antibody (Molecular Probes, Cincinnati, Ohio). The extent of microtubule assembly in each reaction was determined microscopically by comparing the extent of microtubule formation on each coverslip. Decreased microtubule formation in reactions comprising polypeptides derived from CPAP indicated the ability of such polypeptides to inhibit centrosome-dependent microtubule assembly.

Row | Molecule | Inhibition of microtubule nucleation/assembly from purified centrosomes (in words) [1] | Effect of synthetic peptide on centrosome-dependent microtubule nucleation (in words) [1] | other results
1 | GFP-PN2-1: GFP-tagged CPAP residues 132-190 (EFKEGAYKDPLFKKLEQLKEVQQKKQEQLKRQQLEQLQRLMEEQEKLLTMVSGQCTLPG; also: GFP tag, terminus not given here; UniProt Q9HC77 132-190, looked up, fragment) | – | – | Inhibition of microtubule reassembly in cold-treated mitotic cells (in words) (HeLa cells): no significant inhibition
2 | GST-PN2-3C: GST fusion with PN2-3C, amino acid residues 369-422 of CPAP (non-helical motif) (AKPKQPFLKRGEGLARFTNAKSKFQKGKESKLVTNQSTSEDQPLFKMDRQQLQR; also: GST tag, terminus not given here; UniProt Q9HC77 369-422, looked up, fragment) | less inhibition | – | –
3 | peptide C1: synthetic peptide, amino acid residues 363-392 of CPAP (SEQ ID NO:1) (GPLPIKAKPKQPFLKRGEGLARFTNAKSKF; listed as Homo sapiens) | – | No effect | –
4 | peptide C2: synthetic peptide, amino acid residues 393-423 of CPAP (SEQ ID NO:1) (QKGKESKLVTNQSTSEDQPLFKMDRQQLQRK; listed as Homo sapiens) | – | No effect | –
5 | peptide H2: synthetic peptide, amino acid residues 327-362 of CPAP (SEQ ID NO:1) (IKAAIGERKQTFEDYLEEQIQLEEQELKQKQLKEAE; listed as Homo sapiens) | – | No effect | –
6 | peptide N: synthetic peptide, amino acid residues 310-329 of CPAP (SEQ ID NO:1) (LQKHDDSSEVANIEERPIKA; listed as Homo sapiens) | – | No effect | –
7 | B1 | inhibited | – | –
8 | B2 | showed the ability to inhibit microtubule assembly | – | –
9 | B3 | showed the ability to inhibit microtubule assembly | – | –
10 | B4 | – | – | Inhibition of microtubule reassembly in cold-treated cells (in words) (HeLa cells; transfected HeLa cells expressing lower levels of the construct): no significant inhibition; Inhibition of microtubule reassembly in cold-treated mitotic cells (in words) (HeLa cells): significantly inhibited microtubule reassembly
